Biological target: human prothrombin (FII) (human, UniProt P00734 44-622, gamma-carboxylated glutamate residues in the Gla domain)
Assay: SPR

B1: Ad1 hexon, on wild-type human adenovirus type 1 virions (natural protein)
chain: ATPSMMPQWSYMHISGQDASEYLSPGLVQFARATETYFSLNNKFRNPTVAPTHDVTTDRSQRLTLRFIPVDREDTAYSYKARFTLAVGDNRVLDMASTYFDIRGVLDRGPTFKPYSGTAYNALAPKGAPNSCEWEQEEPTQEMAEELEDEEEAEEEEAEEEAEAPQADQKVKKTHVYAQAPLAGEKITANGLQIVSDTQTEGNPVFADPTYQPEPQVGESQWNEAEATASGGRVLKKTTPMKPCYGSYARPTNKNGGQGILVANNQGALESKVEMQFFAPSGTAMNERNAVQPSIVLYSEDVNMETPDTHISYKPSKTDENSKAMLGQQAMPNRPNYIAFRDNFIGLMYYNSTGNMGVLAGQASQLNAVVDLQDRNTELSYQLLLDSIGDRTRYFSMWNQAVDSYDPDVRIIENHGTEDELPNYCFPLGGIGVTDTYQGIKSNGNGNPQNWTKNDDFAARNEIGVGNNFALEINLNANLWRNFLYSNIALYLPDKLKYTPTNVEISPNPNSYDYMNKRVVAPGLVDCYINLGARWSLDYMDNVNPFNHHRNAGLRYRSMLLGNGRYVPFHIQVPQKFFAIKNLLLLPGSYTYEWNFRKDVNMVLQSSLGNDLRVDGASIKFDSICLYATFFPMAHNTASTLEAMLRNDTNDQSFNDYLSAANMLYPIPANATNVPISIPSRNWAAFRGWAFTRLKTKETPSLGSGYDPYYTYSGSIPYLDGTFYLNHTFKKVAITFDSSVSWPGNDRLLTPNEFEIKRSVDGEGYNVAQCNMTKDWFLVQMLANYNIGYQGFYIPESYKDRMYSFFRNFQPMSRQVVDDTKYKDYQQVGILHQHNNSGFVGYLAPTMREGQAYPANFPYPLIGKTAVDSITQKKFLCDRTLWRIPFSSNFMSMGALTDLGQNLLYANSAHALDMTFEVDPMDEPTLLYVLFEVFDVVRVHQPHRGVIETVYLRTPFSAGNATT
Kd: 5 nM

Reference: publication PMC9536601 (2022)
